Assay: soluble on expression in E. coli; label from the status in PepcDB or PDB records
In the case of “MIKVVGLGPGSKNALTLGTLEAVKNSQNIFFRTKKHPVVEYFDEIGIKYSTYDDKYETGESFDEVYDFIARDLVSKAKELKDIVYAVPGHPLVAEKSVQILIELCEKENIKVDIVPAVSFIDALMESLKIDPVKGLKIVDAFDIKNQILDKRLGIVITQVYNSFIASDVKLALLEYYKDDTEIYFVRAAGIENEESVRKIPLYELDRQSDIDYLTSVYVPCDINNNKDFYDLLNIMEILRGENGCPWDREQSHDTIKRALIEECYEAVEAIEKNDDDMMVEELGDVLFQVVFHAKIGKDEGYFNINDVISGICNKMIERHPHVFKNEQIKNSTEVLQKWDEIKRKQQDLNSYTEEMKHIPKILPALIRAEKVQKKASKVGFDFRNVEEALDKVLEETREVKDVYKGIIRDRIAEEVGDLIFSVVNIARLLDIDSEFALNYTIDKFIKRFYYIEKAAKDKNLKIESMSLEEMNALWDEAKLKIQ”, the “soluble on expression in E. coli” value was “not soluble”. In the case of “MGSDKIHHHHHHMASHLTDGVIHATTRAASLHWCIAQATKTDGALNGDGYLLKRDEDTLLFALADGVGSGQLAHDASSACLRILAASDDMDLPSLFETCHTQLTSTRGAALGLVKFFLGQGFLEWAAVGDIEGCIYPTEPTSSRTISMMQRGGTLGHYFTGITPQQHAWPPTSMLALCTDGVSRKFRERHPNDQAPREFADSCFNDFGRDNDDRTLATFSWTQEGT”, the “soluble on expression in E. coli” value was “not soluble”. For “MAHHHHHHMVTVPKLQAMREAGEKIAMLTSYDASFAALLDRANVDVQLIGDSLGNVLQGQATTLPVTLDDIAYHTACVARAQPRGLVVADLPFGTYGTPADAFASAVKLMRAGAQMVKLEGGEWLAETVRFLVERAVPVCAHVGLTPQSVHAFGGFKVQGKTEAGAAQLLRDARAVEEAGAQLIVLEAVPTLVAAEVTRELSIPTIGIGAGAECSGQVLVLHDMLGVFPGKRPRFVKDFMQGQPSIFAAVEAYVRAVKDGSFPGPEHSF”, the “soluble on expression in E. coli” value was “soluble”. In the case of “MMKKALLIDDECWLRVQARDASADGRFVFAVRTTGVFCRPSCRSKRALRKNVRFFANAQQALDAGFRPCKRCQPDNARAQQRRLDKIACACRLLEQETPVTLAFLAQAVAMSPFHLHRLFKASTGMTPKGWQQAWRARRLREALAKGEPITAAIYRAGFPDSSSYYRHADQTLGMTAKQFRKGGDNVSVRYALTDWVYGRCLVAESERGICAILPGDSDDALLAELHTLFPSARHEPADALFQQRVRQVVAAINTRDVLLSLPLDIQGTAFQQQVWQALCAIPCGETVSYQQLAATIGKPTAVRAVASACGANKLAMVIPCHRVVRRDGALSGYRWGVRRKAQLLKREAQKEE”, the “soluble on expression in E. coli” value was “not soluble”. With “MTDEKKKGVIFDIQRWSLHDGPGIRTNVFFKGCPLSCQWCSNPESQEFCREPALFGDKCIHCLSCVEHCPHGAIHTSDPWIRLDYEICRGRCSRGAEQENAFCCTKACYAQALTVMGEVMTADMVLEEVMRDEGIYRSSGGGVTMTGGEPLAQPEFLLELLTAAKERGLHTVMESSMFAEWDKIQACLPYLDVLFMDMKLLPEEKHVKYTGVSNQIILDNIRRAAAYARTHRLELAVRTPVIPGINDTSGDIAAMADWIKKHLPGVERYELLPYHRLGRGKYRNIGREYQLGDIVPPSKEKMKELEAVVSKLGLRRE” the “soluble on expression in E. coli” value was “not soluble”. In the case of “MNVNAETEDATLLLDGLLQNVAIIRFDTNKKVTYANALFAEAMGYTEEEMLQLSHPDLCFPDFVQTASYKEMWTNLLAGQKFQNKIERKNARGERVWFEATYIPIIREETVVGVAKIATDIT”, the “soluble on expression in E. coli” value was “not soluble”. For “MAHHHHHHMAANGCFIAALIARTHDRLPLCSYTDDNYSNANVIRQQEQRIVERMESPAGGTDRAAAKGSYYESFDHKDNVYFAFQDAATDLTLVVAVNKLLLRNSGDINGMNKLACGLLDLIFSEFIQMYTPAEIGAPNVRAYQFIKFDATLRKCVTRIMQQDRTTGDRIV”, the “soluble on expression in E. coli” value was “not soluble”. For “MLEGVIRESITKANAKALKKDGYLIANVYGKGIENVNGAFKLNPFIKYLKEKKHLIFPVKLGDKTFEVVVQEYQKNPVTNELIHVDLLAVTKGVKSKFKVPIKHQGTPVGLKNKGILMLSKKRISVECAPEHLPDHYLVDVAPLDVNESILVRDLEKHENVKILDHDSIAVIGVIKAK”, the “soluble on expression in E. coli” value was “not soluble”. In the case of “MLNTKSPSPANSNYDFALRHERVKLIARALKQFGVYITRTTQAMREVASCLSLVGQSYHEVAQCVNNTNPHSRADQDCYISFNRQLVESYGANLQNAATLFSAEMMNIKNGEQFLSYNKSVHRTVMTRLHDVLKMAQRTRDLGDDVKAELKKATSCRKVVSRKEAKYIRKGRPLTESKLYVRQSERMRKHDQAYEAKLRTFDTEYESLMQRQLYVAGHTMDDFLDMNTVYLSHILKVLGCLAPNGAEAIQKMLDSGEKLSDLLGIAPEDQLGCRLRAQNVDVLNSSNVTPVKRGVGATPGKGTPAKSSCCGSSHNFTSYYQNRRQAALYVEGAPPTARALGEDSRGSSEPCQTLSETPERQLISNQTPLRATFGSAAICRAASHSYSAAEPAAPSPLQPPSFPAAVRRVDAAPVPYVKPLAIGLHASCGSPGTTTDAAKQTCPAGNAAPAAWVVKTGGRRGSVCDTTNSRTRVELSLGHAQFDDDNTAAGAPPAACLAPAPPPAQYSEERPMERPLGRSEVPAAQAAMFGLDVARSAAPFDDQLVADSCRRTSLLSLKPVALFPLDVSESSISRKVAPRTSAATTSVANPSTQQRSRRDRKKHKTTKVVAAARGVPLPGTASAPPDEDTMSRSTSTQSQEALESSIHGYHAAHYHCPPPQQLHNLKQHPQRDSAPVSLAHFQMELTGCSGDAPCQWRNDGLCSEAGGVSGRSQRLSTSYGLDSPTPTPQPFALGTHAWEDSQVRPCSSA”, the “soluble on expression in E. coli” value was “not soluble”. With “MGSDKIHHHHHHMTKFLIDSLQPKLVAQFARIIDRKQLAQSYLFVGPKGAGKLALAEWIALRLFCQNVQDGAPCGQCPECERILNHNHPDVMVVKTETQSIKVDDIRGLKQEMSKTGVEGNQRVFVVEDADKMTAGAANSLLKFFEEPVPGMTVILTATSKNQLLPTILSRAQVITFQSPDRSAVIAKLEEGGATSQMARVAGRLTGNVADAQALLASATFQDRVTKVFQLLERLADHDPESFVRVQTQLLPIAKDADSQRQVLALIGLAYADALNQHFQVTSMQQLDLPAIGVLAQRSSEQLTTALQAILTAQVRLSQNVTFQSATEQLMLKLLEG” the “soluble on expression in E. coli” value was “not soluble”. In the case of “MEDLALRPKTLDEYIGQERLKQKLRVYLEAAKARKEPLEHLLLFGPPGLGKTTLAHVIAHELGVNLRVTSGPAIEKPGDLAAILANSLEEGDILFIDEIHRLSRQAEEHLYPAMEDFVMDIVIGQGPAARTIRLELPRFTLIGATTRPGLITAPLLSRFGIVEHLEYYTPEELAQGVMRDARLLGVRITEEAALEIGRRSRGTMRVAKRLFRRVRDFAQVAGEEVITRERALEALAALGLDELGLEKRDREILEVLILRFGGGPVGLATLATALSEDPGTLEEVHEPYLIRQGLLKRTPRGRVATELAYRHLGYPPPVGPLLEP”, the “soluble on expression in E. coli” value was “soluble”. For “QVQLKESGPGLVAPSQSLSITCTVSGFSLTDYGVDWVRQPPGKGLEWLGMIWGDGSTDYNSALKSRLSITKDNSKSQVFLKMNSLQTDDTARYYCVRDPADYGNYDYALDYWGQGTSVTVSSAKTTPPSVYPLAPGSAAQTNSMVTLGCLVKGYFPEPVTVTWNSGSLSSGVHTFPAVLQSDLYTLSSSVTVPSSTWPSETVTCNVAHPASSTKVDKKIVPRDCG”, the “soluble on expression in E. coli” value was “soluble”. In the case of “SKLNQNTMLVGKKVVLVPYTSEHVPRYHEWMKSEELRHLTASEQLTLQQEYEMQCSWCEDEDKCTFIVLDAEKWQAQPRPPEESCMVGDVNLFLTDLEDPTLGEIEVMIAEPSYRRQGLGTEASLLIMSYGVTKLGLTKFEAKIGQENEPSIRMFQKLHFKQVAMSNVFQEVTLRLAVSEPERKWILEQTSHMEERPYRTRKAEPVTATLSEQKSWNCPLPRPDGCMGDTSAVSSVCARLS”, the “soluble on expression in E. coli” value was “soluble”. In the case of “MPGTPIPMGRQTHRAHSASGFYTPHVSKLKTNYDREFQKFLRSAKTAIDHLDKIEMQILCPLKKKIKRFHKESNTLDVYFRSQTYWRSFYKELMNRSDDVMDCFRFEDLRDVAAVVESHRLPDVLVSFVTQQLMEWRELFKDVEWMRKFRELSHNMDSLKTKRIEHVLRQDIIREIGVAIDVHNLKIDDFRSHSNNTERVAEGIAHAIEESKNKQDAGNQLKHVPVLSKQMSVRRWYREHYGDPQALSDESDEESLSDGDNSSLFVGTADSSSRDASDISTEEVVTENEFDEFFN”, the “soluble on expression in E. coli” value was “not soluble”. In the case of “ETEPGHALVIWHDSTNEYYTMQQLTLAYEESRLLFEKAPQGIAMLDPSGEIVMANRSFGDLVGTTPVRLLGRNLEDFGVEEGTMEYVTPVLSDPEAVVHLDRSLETLRGKQKNVAMSFSSMGNVG”, the “soluble on expression in E. coli” value was “not soluble”. For “MWAFRTARIGSLLAATSVILRRCLRLGVAMAKSKFEYVRNFEVQDTCLPHCWVVVRLDGRNFHRFAEEHNFAKPNDSRALHLMTKCAQTVMEELEDIVIAYGQSDEYSFVFRKKSNWFKRRASKFMTLVASQFASSYVFYWRDYFEDQPLRYPPGFDGRVVLYPSNQTLKDYLSWRQADCHINNLYNTVFWALIQQSGLTPVQAQQRLKGTLTADKNEILFSEFHINYNNEPHMYRKGTVLVWQKVEEVRTQEVRLPAEMEGEKKAVARTRTRVVALNCDLIGDAFWKEHPEILAEEN”, the “soluble on expression in E. coli” value was “soluble”. In the case of “MSFDPLPGTLENLLEQTSLKWIFVGGKGGVGKTTTSCSLAIQMSKVRSSVLLISTDPAHNLSDAFGTKFGKDARKVPGFDNLSAMEIDPNLSIQEMTEQADQQNPNNPLSGMMQDLAFTIPGIDEALAFAEILKQIKSMEFDCVIFDTAPTGHTLRFLNFPTVLEKALGKLGGLSSRFGPMINQMGSIMGVNANEQDLFGKMESMRANISEVNKQFKNPDLTTFVCVCISEFLSLYETERMIQELTSYEIDTHNIVVNQLLLDPNTTCPQCMARRKMQQKYLAQIEELYEDFHVVKVPQVPAEVRGTEALKSFSEMLVKPYVYPTSGKE”, the “soluble on expression in E. coli” value was “soluble”. With “DREELDKQLRHERERFRLLVDAVENYAIFLLDPDGLIQSWNVGAKQLTQYEESDILGEHVSTFHTEKQVADGIPEQLLQEAEECGKAIDRGLRVRKDGSTFWADVTVTALQENSDARGFAKVIKDIT” the “soluble on expression in E. coli” value was “not soluble”. In the case of “MKLVKLSLVAALAAGAFSAANATPLEEAIKDVDVSGVLRYRYDTGNFDKNFVNNSNLNNSKQDHKYRAQVNFSAAIADNFKAFVQFDYNAADGGYGANGIKNDQKGLFVRQLYLTYTNEDVATSVIAGKQQLNLIWTDNAIDGLVGTGVKVVNNSIDGLTLAAFAVDSFMAAEQGADLLEHSNISTTSNQAPFKVDSVGNLYGAAAVGSYDLAGGQFNPQLWLAYWDQVAFFYAVDAAYSTTIFDGINWTLEGAYLGNSLDSELDDKTHANGNLFALKGSIEVNGWDASLGGLYYGDKEKASTVVIEDQGNLGSLLAGEEIFYTTGSRLNGDTGRNIFGYVTGGYTFNETVRVGADFVYGGTKTEAANHLGGGKKLEAVARVDYKYSPKLNFSAFYSYVNLDQGVNTNESADHSTVRLQALYKF”, the “soluble on expression in E. coli” value was “soluble”. In the case of “MTTTTPIRLLVRPITAGDNLAIANVIREVSAEFGLTADKGYTVSDPNLDHLYELYSQPRSAYWVIEVDGHIAGGGGVAPLLGGEADLCELQKMYFLPILRGKGLAKQLALQALAFARQQGFGRCYLETTASLTSAVGLYERLGFEHIGGAMGNTGHVDCEVTMLKTL”, the “soluble on expression in E. coli” value was “not soluble”. In the case of “MTSQRCRRRYFMMIRERIEEKLRAAFQPVFLEVVDESYRHNVPAGSESHFKVVLVSDRFTGERFLNRHRMIYSTLAEELSTTVHALALHTYTIKEWEGLQDTVFASPPCRGAGSIA”, the “soluble on expression in E. coli” value was “soluble”. In the case of “EAYLGVMINDLVTKEISDPYRLLTSRAEHRLWLRNDNLQERLIEKSRALGLVEADVYANYLEQQQKKKQLIDYLQTTTVGQIAALKLNFKNTAQTLFDFTKRAEIKLVDLVQLLPKRFDLDVQSLNQIDIDIKYAGYIKKSEKYFKSLNNLSSVKIPLKLNYHKVPNLASEAIVKLSKIRPTDLSVASQVAGINFNDILAIKHFLDNHE”, the “soluble on expression in E. coli” value was “soluble”.

From the DeepSol protein solubility set
